Reference: article PMC9898758, “Analysis of a degron-containing reporter protein GFP-CL1 reveals a role for SUMO1 in cytosolic protein quality control” (The Journal of Biological Chemistry, 2022)

Biological target: T1, MBP-Slx5 (UniProt P32828 1-619)
T1 construct: Plasmid was a gift from Dr Oliver Kerscher; also called MBP-tagged SLX5; source: E. coli Rosetta, purified (amylose resin)
T1 sequence (looked up): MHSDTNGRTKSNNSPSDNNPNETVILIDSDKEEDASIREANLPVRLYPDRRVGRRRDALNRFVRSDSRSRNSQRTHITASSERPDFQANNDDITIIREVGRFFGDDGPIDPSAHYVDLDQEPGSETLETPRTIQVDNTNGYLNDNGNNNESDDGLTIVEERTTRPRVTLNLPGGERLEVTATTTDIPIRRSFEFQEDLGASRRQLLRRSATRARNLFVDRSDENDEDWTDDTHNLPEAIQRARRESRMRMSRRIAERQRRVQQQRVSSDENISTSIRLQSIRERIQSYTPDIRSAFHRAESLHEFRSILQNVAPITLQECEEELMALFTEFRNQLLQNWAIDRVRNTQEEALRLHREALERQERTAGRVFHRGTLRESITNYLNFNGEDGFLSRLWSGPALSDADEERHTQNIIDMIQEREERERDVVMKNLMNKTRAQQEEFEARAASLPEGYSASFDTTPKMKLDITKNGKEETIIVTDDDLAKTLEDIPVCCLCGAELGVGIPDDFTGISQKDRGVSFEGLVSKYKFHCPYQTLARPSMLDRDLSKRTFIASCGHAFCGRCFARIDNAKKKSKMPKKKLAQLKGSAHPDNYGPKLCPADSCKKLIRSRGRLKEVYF
Assay: pull-down; MBP-Slx5 or MBP alone immobilised on amylose beads, incubated with purified GST, GST-Smt3 or GST-Smt3-K38/40A; washes, SDS-PAGE, immunoblot with anti-MBP and anti-GST
Settings: both partners purified

B1: GST-tagged Smt3-K38/40A mutant (natural protein, S. cerevisiae)
chain: EVKPEVKPETHINLKVSDGSSEIFFAIAKTTPLRRLMEAFAKRQGKEMDSLRFLYDGIRIQADQTPEDLDMEDNDIIEAHREQIGG
notes: Smt3 of S. cerevisiae with K38A and K40A; SMT3^K38/40A cloned into pGEX-6p-1; also called GST-SMT3^K38/40A; GST-Smt3-K30/40A; source: E. coli Rosetta, purified (Glutathione Sepharose 4B)
For B1, the “fold reduction in binding against WT Smt3” value was > 5 fold.
